Experimental findings from publication PMC11728703 are described below.

Values joined by “and” are separate entries in the source; they are usually repeats but may differ in a detail not shown here. Equal entries are not always repeated.

The experiment deals with Bacteriophage P22 small terminase subunit gp3 (S-terminase), full length (bacteriophage P22). As to the kind of experiment: native MS; co-purified S:L-terminase complex (peak 2) exchanged into 150 mM ammonium acetate pH 8.0, 2 uM, nanoflow electrospray capillary; modified QTOF-2 and Exactive Plus EMR Orbitrap.
Chain of Bacteriophage P22 small terminase subunit gp3 (S-terminase), full length (bacteriophage P22) (P04893 whole entry): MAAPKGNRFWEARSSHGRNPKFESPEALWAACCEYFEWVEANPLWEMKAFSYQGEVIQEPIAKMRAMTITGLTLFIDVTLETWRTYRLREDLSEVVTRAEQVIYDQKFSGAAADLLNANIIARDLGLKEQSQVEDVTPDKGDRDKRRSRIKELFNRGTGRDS

“Bacteriophage P22 large terminase subunit gp2 (L-terminase), full length (enzyme)”: the stoichiometry N (gp2 per 1 (gp3)9) was 1 and 2; the stoichiometry N (gp2 per 2 (gp3)9) is 5; the stoichiometry N (gp2 per 3 (gp3)9) is 7.
The term stoichiometry N denotes the number of molecules, sites or subunits per partner or assembly. As to “Bacteriophage P22 small terminase subunit gp3 (S-terminase), full length (natural protein)”, the stoichiometry N amounted to 9.
